According to PMC3025461:

Columns and labels:
[1] = target: S. cerevisiae Smc1 hinge protein (S480-E681), wild type (S. cerevisiae) (UniProt P32908); assay: ITC
[2] = target: S. cerevisiae Smc1DD hinge protein (S480-E681; K554D, K661D) (S. cerevisiae) (UniProt P32908); assay: ITC
[3] = target: S. cerevisiae Smc3-FLAG hinge protein (S. cerevisiae); assay: pull-down

Row | Molecule | Kd [1] [nM] | Kd [2] [nM] | reduction in dH against wild-type Smc1/Smc3 [2] [kcal/mol] | half time [3] [min] | half-life of the hinge dimer [3] [min]
1 | S. cerevisiae Smc3 hinge protein (T495-L695), wild type (domain or fragment) | 22 |  |  |  | 
2 | S. cerevisiae Smc3AAA hinge protein (T495-L695; R665A, K668A, R669A) (domain or fragment) | 24 | 29 | 4 |  | 
3 | S. cerevisiae Smc1 hinge protein (S480-E681), wild type (domain or fragment) SANNQEYDLNFKLRETLVKIDDLSANQRETMKERKLRENIAMLKRFFPGVKGLVHDLCHPKKEKYGLAVSTILGKNFDSVIVENLTVAQECIAFLKKQRAGTASFIPLDTIETELPTLSLPDSQDYILSINAIDYEPEYEKAMQYVCGDSIICNTLNIAKDLKWKKGIRGKLVTIEGALIHKAGLMTGGISGDANNRWDKEE |  |  |  | 30 | 15 to 30
